Laboratory results reported in publication PMC4189953.

Key:
[1] = biological target: CFP-tagged ICln (C-ICln) (human) (UniProt P54105); test: FRET or BRET; acceptor photobleaching FRET (FRETeff), living HEK cells 24 h after transfection, 37°C, slightly hypertonic extracellular solution (317 mOsm, pH 7.4); CFP donor, YFP acceptor; whole cell bleached
[2] = biological target: CFP-tagged ICln (C-ICln) (human) (UniProt P54105); test: FRET or BRET; acceptor photobleaching FRET (FRETeff), living HEK cells, 37°C, after 10 min exposure to the hypotonic extracellular solution; CFP donor, YFP acceptor

UniProt P54105, sequence (P54105 whole entry): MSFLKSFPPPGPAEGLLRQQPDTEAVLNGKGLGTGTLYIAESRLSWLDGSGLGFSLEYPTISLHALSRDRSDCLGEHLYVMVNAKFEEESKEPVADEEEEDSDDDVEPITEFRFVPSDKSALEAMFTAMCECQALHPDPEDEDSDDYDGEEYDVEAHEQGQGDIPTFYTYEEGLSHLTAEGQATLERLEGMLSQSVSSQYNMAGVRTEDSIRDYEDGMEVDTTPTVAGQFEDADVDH

“YFP-tagged 4.1R^80 (Y-4.1R^80) (natural protein)” was tested, and the FRETeff [1] was 11.6 and the FRETeff [2] was 15.1.
